In paper PMC5692476, “Effects of Periplasmic Chaperones and Membrane Thickness on BamA-Catalyzed Outer-Membrane Protein Folding” (Journal of Molecular Biology, 2017):
Where “and” joins values, the source holds several entries; their conditions need not be identical. Equal entries are not always repeated.

T1: transmembrane domain of OmpA (tOmpA) (E. coli, UniProt P0A910 22-192)
T1 construct: 171-residue transmembrane (beta-barrel) domain of OmpA; Diluted from a denatured state in 8 M urea into the chaperone solution; PDB 1QJP, used for the simulations, is the same domain with mutated residues
T1 sequence (looked up): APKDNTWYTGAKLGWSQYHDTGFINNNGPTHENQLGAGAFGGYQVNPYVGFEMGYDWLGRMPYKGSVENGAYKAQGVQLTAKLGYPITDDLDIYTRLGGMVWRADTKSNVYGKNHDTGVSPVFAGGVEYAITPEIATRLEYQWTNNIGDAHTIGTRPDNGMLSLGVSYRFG

T2: SurA (Escherichia coli), P0ABZ6
T2 chain: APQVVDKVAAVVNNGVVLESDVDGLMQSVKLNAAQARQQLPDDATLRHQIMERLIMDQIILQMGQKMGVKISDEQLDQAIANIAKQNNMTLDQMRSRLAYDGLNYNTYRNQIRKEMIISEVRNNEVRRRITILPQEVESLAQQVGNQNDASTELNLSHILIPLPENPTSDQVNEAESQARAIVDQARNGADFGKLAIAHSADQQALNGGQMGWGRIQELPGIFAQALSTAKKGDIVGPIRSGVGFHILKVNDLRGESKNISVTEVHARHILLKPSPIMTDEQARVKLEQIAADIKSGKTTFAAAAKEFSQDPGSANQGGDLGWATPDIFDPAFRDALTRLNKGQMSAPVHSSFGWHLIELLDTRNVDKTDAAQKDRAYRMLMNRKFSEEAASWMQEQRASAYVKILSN

B1: Skp (natural protein, Escherichia coli, UniProt P0AEU7 21-161, looked up)
chain: ADKIAIVNMGSLFQQVAQKTGVSNTLENEFKGRASELQRMETDLQAKMKKLQSMKAGSDRTKLEKDVMAQRQTFAQKAQAFEQDRARRSNEERGKLVTRIQTAVKSVANSQDIDLVVDANAVAYNSSDVKDITADVLKQVK
notes: Skp, periplasmic chaperone of Escherichia coli; Probably the mature protein without its signal peptide (surmised); also called Escherichia coli periplasmic chaperone Skp
B2: SurA (natural protein, Escherichia coli, UniProt P0ABZ6 21-428, looked up)
chain: APQVVDKVAAVVNNGVVLESDVDGLMQSVKLNAAQARQQLPDDATLRHQIMERLIMDQIILQMGQKMGVKISDEQLDQAIANIAKQNNMTLDQMRSRLAYDGLNYNTYRNQIRKEMIISEVRNNEVRRRITILPQEVESLAQQVGNQNDASTELNLSHILIPLPENPTSDQVNEAESQARAIVDQARNGADFGKLAIAHSADQQALNGGQMGWGRIQELPGIFAQALSTAKKGDIVGPIRSGVGFHILKVNDLRGESKNISVTEVHARHILLKPSPIMTDEQARVKLEQIAADIKSGKTTFAAAAKEFSQDPGSANQGGDLGWATPDIFDPAFRDALTRLNKGQMSAPVHSSFGWHLIELLDTRNVDKTDAAQKDRAYRMLMNRKFSEEAASWMQEQRASAYVKILSN
notes: SurA, periplasmic chaperone of Escherichia coli; Probably the mature protein without its signal peptide (surmised); also called Escherichia coli periplasmic chaperone SurA

Experiments:
OmpC (Escherichia coli) = OmpC (Escherichia coli) (UniProt P06996); test: FRET; settings: cited from earlier work
Sequence of OmpC (Escherichia coli) (P06996 22-367): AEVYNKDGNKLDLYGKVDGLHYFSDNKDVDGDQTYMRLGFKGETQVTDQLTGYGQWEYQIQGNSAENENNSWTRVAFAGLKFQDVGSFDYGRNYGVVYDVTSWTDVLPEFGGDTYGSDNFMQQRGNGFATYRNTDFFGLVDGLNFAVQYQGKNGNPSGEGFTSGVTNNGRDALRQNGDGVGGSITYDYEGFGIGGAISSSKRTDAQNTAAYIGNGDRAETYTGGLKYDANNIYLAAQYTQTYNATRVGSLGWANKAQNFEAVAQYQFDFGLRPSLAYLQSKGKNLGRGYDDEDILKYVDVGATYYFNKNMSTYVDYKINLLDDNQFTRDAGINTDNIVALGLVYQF

[1] = target: T1, transmembrane domain of OmpA (tOmpA); test: native MS; nano-ESI; proteins alone or pre-mixed 1:1; tOmpA diluted from 8 M urea into Skp or SurA (all 1 μM final, 0.2 M urea, 50 mM glycine–NaOH pH 9.5), 5 min at room temperature, then buffer exchange into 200 mM ammonium acetate pH 10; settings: both partners purified
[2] = target: Cys-tOmpA labeled with Alexa Fluor 488 (E. coli); test: MST; 100 nM Alexa Fluor 488-labeled Cys-tOmpA, SurA 100 μM–3 nM, 0.25 M urea, 50 mM glycine–NaOH pH 9.5; Monolith NT.115; fit to the Hill equation; apparent
[3] = target: T2, SurA (Escherichia coli), P0ABZ6; test: native MS; nano-ESI; proteins alone or pre-mixed 1:1; tOmpA diluted from 8 M urea into Skp or SurA (all 1 μM final, 0.2 M urea, 50 mM glycine–NaOH pH 9.5), 5 min at room temperature, then buffer exchange into 200 mM ammonium acetate pH 10; settings: remark: other sources report otherwise

Molecule	Kd (OmpC (Escherichia coli))	stoichiometry N [1]	Kd [2]	stoichiometry N [3]
SurA (from UniProt P0ABZ6)	106 nM			
B1		1		
B2		1 and 2	1800 nM	2
